Test results: the supplement of paper PMC7125110
± gives the standard error. For some of these results: This sample holds only a part of the variants without activity.

B1: glmS ribozyme (parent)
chain: AUAAAAGCGCCAGAACUACAGAAAUGUAGUUGACGAGGAGGAGGUUUAUCGAAUUUUCGGCGGAUGCCUCCAAA

What was measured:
Conditions in all cases: with glucosamine-6-phosphate
glucosamine-6-phosphate [1] = variants of: B1; assay: kcat; higher = faster cleavage; RNA array
Summary of the method: (§1)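 The measurements used barcoded ribozyme variants on sequenced MiSeq chips, transcribed in situ by E. coli RNA polymerase and tracked at 37 °C with a hybridised Cy3 probe. Glucosamine-6-phosphate, 40 μM to 10 mM in HEPES/KCl/Mg(OAc)2 buffer, was flowed in while tiles were imaged over ~14 h. Baseline-normalised signals, also normalised to non-cleaving reference variants, gave per-tile medians that were fit to one- or two-exponential decays for kobs. kcat and KM resulted from weighted Michaelis–Menten fits across concentrations.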

glucosamine-6-phosphate [2] = variants of: B1; assay: KM; higher = weaker cofactor use; RNA array
Summary of the method: as §1

glucosamine-6-phosphate [3] = variants of: B1; assay: self-cleavage kobs at 40 uM GlcN6P; higher = faster cleavage; RNA array
Summary of the method: as §1

glucosamine-6-phosphate [4] = variants of: B1; assay: self-cleavage kobs at 160 uM GlcN6P; higher = faster cleavage; RNA array
Summary of the method: as §1

glucosamine-6-phosphate [5] = variants of: B1; assay: self-cleavage kobs at 640 uM GlcN6P; higher = faster cleavage; RNA array
Summary of the method: as §1

glucosamine-6-phosphate [6] = variants of: B1; assay: self-cleavage kobs at 2500 uM GlcN6P; higher = faster cleavage; RNA array
Summary of the method: as §1

glucosamine-6-phosphate [7] = variants of: B1; assay: self-cleavage kobs at 10000 uM GlcN6P; higher = faster cleavage; RNA array
Summary of the method: as §1

| Variant | kcat (glucosamine-6-phosphate [1]) [s⁻¹] | KM (glucosamine-6-phosphate [2]) [µM] | self-cleavage kobs at 40 uM GlcN6P (glucosamine-6-phosphate [3]) [s⁻¹] | self-cleavage kobs at 160 uM GlcN6P (glucosamine-6-phosphate [4]) [s⁻¹] | self-cleavage kobs at 640 uM GlcN6P (glucosamine-6-phosphate [5]) [s⁻¹] | self-cleavage kobs at 2500 uM GlcN6P (glucosamine-6-phosphate [6]) [s⁻¹] | self-cleavage kobs at 10000 uM GlcN6P (glucosamine-6-phosphate [7]) [s⁻¹] |
| --- | --- | --- | --- | --- | --- | --- | --- |
| AUAAAAGCGCCAGAACUACAGAAAUGUAGUUGACGAGGAGGAGGUUCAUCGAACUUUCGGCGGAUGCCUCCAAA | 0.00359 ± 0.00063 | 1240 ± 310 | 9.72e-05 ± 1.5e-05 | 0.000434 ± 7.2e-05 | 0.00141 ± 0.00017 | 0.00299 ± 0.00053 | 0.00275 ± 0.00046 |
| AUAAAAGCGCCAGAACUACAGAAAUGUAGUUGACGAGGAGGAGGUUCAUCGAAUUUUCGGCGGAUGCCUCAAAA | 0.00134 ± 0.00043 | – | 4.8e-05 ± 2e-05 | 4.4e-05 ± 1.9e-05 | 0.000204 ± 4.2e-05 | 0.000441 ± 0.00011 | 0.00101 ± 0.00017 |
| AUAAAAGCGCCAGAACUACAGAAAUGUAGUUGACGAGGAGGAGGUUCAUCGAAUUUUCGGCGGAUGCCUCGAAA | 0.000277 ± 6.2e-05 | – | – | – | 0.000116 ± 1.9e-05 | 0.000253 ± 3.8e-05 | 0.000197 ± 5.1e-05 |
| AUAAAAGCGCCAGAACUACAGAAAUGUAGUUGACGAGGAGGAGGUUCAUCGAAUUCUCGGCGGAUGCCUCCAAA | 0.00115 ± 0.00017 | 1940 ± 650 | – | – | 0.000323 ± 7.3e-05 | 0.00061 ± 0.00012 | 0.000972 ± 0.00016 |
| AUAAAAGCGCCAGAACUACAGAAAUGUAGUUGACGAGGAGGAGGUUCAUCGAAUUAUCGGCGGAUGCCUCCAAA | 0.00197 ± 0.00092 | – | 3.94e-05 ± 9.3e-06 | 8.88e-05 ± 1.6e-05 | 0.000985 ± 0.00018 | 0.00159 ± 0.00039 | 0.00143 ± 0.00023 |
| AUAAAAGCGCCAGAACUACAGAAAUGUAGUUGACGAGGAGGAGGUUCAUCGACUUUUCGGCGGAUGCCUCCAAA | 0.00196 ± 0.00041 | 1380 ± 440 | 6.18e-05 ± 1.1e-05 | – | 0.000497 ± 0.00012 | 0.00163 ± 0.00044 | 0.00173 ± 0.00032 |
| AUAAAAGCGCCAGAACUACAGAAAUGUAGUUGACGAGGAGGAGGUUCAUCGAAUUUUGGGCGGAUGCCUCCAAA | 6.37e-05 ± 7.3e-07 | 2170 ± 92 | – | – | – | 3.41e-05 ± 1.1e-05 | 5.23e-05 ± 7.5e-06 |
| AUAAAAGCGCCAGAACUACAGAAAUGUAGUUGACGAGGAGGAGGUUCAUCGAAUUUUCGGCGGAUGCUUCCAAA | 0.00114 ± 0.0002 | 1650 ± 540 | 3.33e-05 ± 1.2e-05 | 0.000149 ± 3.6e-05 | 0.000286 ± 4.6e-05 | 0.000609 ± 0.0001 | 0.00107 ± 0.00015 |
| AUAAAAGCGCCAGAACUACAGAAAUGUAGUUGACGAGGAGGAGGUUCAUCGAAUUUUCGGCGGAUGCAUCCAAA | 3.98e-05 ± 6.2e-06 | – | – | – | – | 4.92e-05 ± 1.8e-05 | 3.44e-05 ± 1.2e-05 |
| AUAAAAGCGCCAGAACUACAGAAAUGUAGUUGACGAGGAGGAGGUUCAUCUAAUUUUCGGCGGAUGCCUCCAAA | < 1e-05 | – | – | – | < 1e-05 | – | < 1e-05 |
| AUAAAAGCGCCAGAACUACAGAAAUGUAGUUGACGAGGAGGAGGUUAAUCGAAUUUACGGCGGAUGCCUCCAAA | 0.000331 ± 5.6e-05 | 6360 ± 1900 | – | – | 3.47e-05 ± 9.4e-06 | 8.34e-05 ± 2e-05 | 0.000205 ± 2.7e-05 |
| AUAAAAGCGCCAGAACUACAGAAAUGUAGUUGACGAGGAGGAGGUUCAUCGAAUUUUGAGUGGAUGCCUCAAAA | 1.36e-05 ± 3.4e-06 | – | – | – | – | – | – |
| AUAAAAGCGCCAGAACUACAGAAAUGUAGUUGACGAGGAGGAGGUUAAUCGAAAUUUCGGCGGACGCCUCCAAA | 0.00046 ± 0.0001 | 1750 ± 700 | – | – | 0.000114 ± 2.7e-05 | 0.000387 ± 0.0001 | 0.000358 ± 8.9e-05 |
| AUAAAAGCGCCAGAACUACAGAAAUGUAGUUGACGAGGAGGAGGUUCAUCGAAUUUUCGGCGGAUGCCUUCAAA | 0.00786 ± 0.0023 | 2070 ± 790 | 0.000179 ± 2.6e-05 | 0.000483 ± 0.00014 | 0.00151 ± 0.00028 | 0.00519 ± 0.00095 | 0.00635 ± 0.0016 |
| AUAAAAGCGCCAGAACUACAGAAAUGUAGUUGACGAGGAGGAGGUUCAUCGAAUUUUCGGCGGAUGCCUCCAAA | 0.00454 ± 0.0006 | 1380 ± 250 | 0.000129 ± 2.6e-06 | 0.000428 ± 1.8e-05 | 0.00142 ± 4.2e-05 | 0.00412 ± 0.00014 | 0.00375 ± 9.2e-05 |
